Data as given in PMC9599533.
Several values for one entry are separate records, joined by “and”; a condition that tells them apart may be missing. Equal values may be shown once.

Assays:
[1] = target: Mpa_(C-EXT) (mycobacterial proteasome ATPase Mpa with a GGGGS linker inserted between Thr601 and Glu (M. tuberculosis) (UniProt P9WQN5)); assay: cryo-EM structure
[2] = target: M. tuberculosis open gate 20S core particle (20SOG CP) (M. tuberculosis) (UniProt P9WHU1); assay: cryo-EM structure

For “Mpa_(C-EXT) (mycobacterial proteasome ATPase Mpa with a GGGGS linker inserted between Thr601 and Glu (from UniProt P9WQN5 1-609) (enzyme)”, the stoichiometry N [1] was 6 and the percent of 20SOG CPs complexed [2] was 50% and 40%.
